Experimental data taken from paper PMC7980224.

Assays:
Assay in all cases: EMSA
Conditions in all cases: apparent Kd; RNA of Fig S1f not named, assumed U1; EMSA: 10 nM labeled RNA, 2-fold protein dilutions up to 10 uM, 2 h on ice, 1% TBE-agarose, 50 V, 4 C; binding buffer not stated (protein elution buffer 150 mM …)
[1] = tested on: INTS4;INTS9;INTS11 (human?;human?;human?)
[2] = tested on: INTS10;INTS13;INTS14 (human?;human?;human?)
INTS5;INTS8 = tested on: INTS5;INTS8

Q: Which results are given for U1 pre-snRNA stem-loop 4 with 3' box?
A: Kd [1]: 820 nM; Kd [2]: 780 nM; Kd (INTS5;INTS8): 3100 nM
